Data on one molecule can be found in patent US20220265770A1, “TREATING NEURODEGENERATIVE DISEASES WITH PROGRANULIN” (NEURODYN, INC., priority 2008, published 2022).

The test system of one test is rat motor neurons. Conditions: literature (Van Damme et al.); cited from earlier work.
Test [1] concerns NSC-34 cells. Description: NSC-34 serum deprivation with hPGRN protein (Alamar Blue). In kind it is cell-based. Conditions: hPGRN 100 ng/ml, Day 4, Alamar Blue. As for the experimental part: Normal NSC-34 cells were maintained in culture using DMEM supplemented with 5% (v/v) fetal calf serum (FCS). Cells were aliquoted in 96-well plates at a density of 6,000 cells/well in 200 uL of DMEM 5% FCS. After 2 hours of culture (to ensure cell adhesion) media was removed, cells washed 1× with PBS and DMEM serum free medium with or without hPGRN (100 ng/ml) added to the cells. Following one and four days of culture remaining metabolically active cells were detected using the Alamar Blue® methodology (Molecular Probes/Invitrogen) following the manufacturer's instructions.
(In general: The colour change of resazurin is a common sign of viable cells or microbes.)

For test [2], the system named is NSC-34 cells. Description: BSSG-induced toxicity in NSC-34 and NSC-34-hPGRN cells (MTT). Type of test: cell-based. How it is done:
Normal NSC-34 and a stable NSC-34 transfectant that over expressed human PGRN (NSC-34-hPGRN) NCS34 were maintained in culture using DMEM supplemented with 5% (v/v) fetal calf serum (FCS). Cells were aliquoted in 96-well plates at a density of 8,000 cells/well in 200 uL of DMEM 5% FCS.d After two hours the neurotoxin Beta-sitosteryl glucoside (BSSG) was added at concentrations of 0, 100, 250, 500, 1000 and 2500 ng/mL with a final culture volume of 250 uL along with 0.1% (v/v) DMSO throughout. As a negative control for cell proliferation/survival, a series of wells were washed and media replaced with DMEM containing no FCS. Following 72 hours cell viability was measured using the MTT assay (Vybrant MTT Cell proliferation Assay; Invitrogen) according to manufacturer's instructions.
To determine if PGRN was capable of protecting NSC-34 cells against BSSG neurotoxicity a stable transfectant was developed to over express human PGRN constitutively.

A further test concerns PC12 cells. Description: Protection against MPTP toxicity in PC12 cells (MTT). In kind it is cell-based. The settings on record: 4 nM progranulin 24 h pretreatment; 0-1000 μM MPTP 24 h. How it is done: PC12 cells were grown on collagen-coated 96-well plates, in Dulbecco's minimal essential medium (DMEM) in the presence of 10% fetal calf serum (FCS) supplemented with glutamine, penicillin and streptomycin. One day after plating (at 60-70% confluence, 40,000 cells/well), the growth medium was replaced by low-serum (2% FCS) medium with 4 nM progranulin (PGRN+) or without progranulin (PGRN−) (FIG. 19). […] 43(5-6):155-158 (2007)]

B1: Progranulin: growth factor-like protein; human progranulin SEQ ID NO: 2 (protein, listed as Homo sapiens)
chain: MWTLVSWVALTAGLVAGTRCPDGQFCPVACCLDPGGASYSCCRPLLDKWPTTLSRHLGGPCQVDAHCSAGHSCIFTVSGTSSCCPFPEAVACGDGHHCCPRGFHCSADGRSCFQRSGNNSVGAIQCPDSQFECPDFSTCCVMVDGSWGCCPMPQASCCEDRVHCCPHGAFCDLVHTRCITPTGTHPLAKKLPAQRTNRAVALSSSVMCPDARSRCPDGSTCCELPSGKYGCCPMPNATCCSDHLHCCPQDTVCDLIQSKCLSKENATTDLLTKLPAHTVGDVKCDMEVSCPDGYTCCRLQSGAWGCCPFTQAVCCEDHIHCCPAGFTCDTQKGTCEQGPHQVPWMEKAPAHLSLPDPQALKRDVPCDNVSSCPSSDTCCQLTSGEWGCCPIPEAVCCSDHQHCCPQGYTCVAEGQCQRGSEIVAGLEKMPARRASLSHPRDIGCDQHTSCPVGQTCCPSLGGSWACCQLPHAVCCEDRQHCCPAGYTCNVKARSCEKEVVSAQPATFLARSPHVGVKDVECGEGHFCHDNQTCCRDNRQGWACCPYRQGVCCADRRHCCPAGFRCAARGTKCLRREAPRWDAPLRDPALRQLL
In the case of B1, the “survival of rat motor neurons under serum deprivation” value with rat motor neurons is given as “increased survival of rat motor neurons”. In addition, the “increase in cell survival following serum starvation” value with NSC-34 cells [1] turned out to be 2.5 fold. The “cell survival in serum free cultures (MTT)” value in the test with NSC-34 cells [2] (PGRN over expression, 72 hours, no FCS) is “increased cell survival”. The “protection against BSSG neurotoxicity (MTT)” value in the test with NSC-34 cells [2] (stable transfectant over expressing human PGRN, 72 hour, 1000 and 2500 ng/mL BSSG) is “protected NSC-34 cells”. The “cell viability against MPTP (MTT)” value in the test on PC12 cells is given as “protective effect”.
